A protein production outcome set (Wang et al. 2014)

Experiment: label from the status in PepcDB records

| Sequence | protein production |
| --- | --- |
| MTLAALCQGVLERLDPRQPGRQLVALSGAPGSGKSTLSNPLAAALSAQGLPAEVVPMDGFHLDNRLLEPRGLLPRKGAPETFDFEGFQRLCHALKHQERVIYPLFDRARDIAIAGAAEVGPECRVAIIEGNYLLFDAPGWRDLTAIWDVSIRLEVPMADLEARLVQRWLDHGLNHDAAVARAQGNDLANARAIEAARLPADLTWPQA | not failed |
| MKIRVADEKELPMILQFLTEVKAYMDVVGITQWTKDYPSQGDIQEDITKKRLYLLVHEEMIFSMATFCMEQEQDFVWLKRFATSPNYIAKGYGSLLFHELEKRAVWEGRRKMYAQTNHTNHRMIRFFESKGFTKIHESLQMNRLDFGSFYLYVKELENQSIV | not failed |
| MWLMSHDMLAIIWFGLWGVIWTVYFILDGYALGNGMIFPFVTKDRQERNQLQEAIGPFWGGNEVWLITAGGATFAAFPVTYANMFSYLYTPLFLVLLALFARAAGLEFMHKDDSPIWQKTCKWAFAIGSFLIAFLFGVTFANLYYGLQIGKNGYEGNLLSLLNHYGILGGLFFTAIFVVSGALWVMIKTTGEVSDRAYKIARPFSMAAAIILAIFYVATANRTNLFQNFTEYPVLFILPVLAMLMSVLALIMVYKHKIGLAFTFVCLTIAMFMTTGFAGMFPRMLPSRINDAYSTTLYNAAGSQLNLKIMFFVAMVMVPIVIGYQLWSYSIFKNKIHKDSAKGYH | failed |
| NVRVITDENWRELLEGDWMIEFYAPWCPACQNLQPEWESFAEWGEDLEVNIAKVDVTEQPGLSGRFIINALPTIYHCKDGEFRRYQGPRTKKDFINFISDKEWKSIEPVSSWF | not failed |
| MGSSLSNLNDGTNGLAMGPGLGDIPESCVACVFMYLTPPEICNLAGLNRSFRGAASSDSVWEKKLPENYQDLLDLLPPERYHSLSKKDIFAVLSRPIPFDDDNKEVWIDRVTGRVCMAISARGMSITGIEDRRYWNWIPTEESRFHVVAYLQQIWWFEVDGTVRFHLPPGVYSLSFRIHLGRFTKRLGRRVCHFELTHGWDLKPVRFSLSTSDGQEASCEYYLDDVERNEALGKHKRGYWIEYRVGEFIVNGSEPSTEIQWSMKQIDCTHSKGGLCVDSVFINPIGDVKEHKRKAVLKEA | failed |
| MDFDLWWLLAIPLVFGLGWVAARLDARQLLTEQASLPRSYFKGLNFLLNEQPDKAIDAFIEVARLDPETTELHFALGSLFRRRGETERAIRVHQNLVNRPDLPANERDHALYELGQDFLRAGLLDRAEESLRMLMEGVFAEPAKRVLLELYEVEKEWRKAIDAARELQTLQGQDYSVQIAQFCCELAQESLQRKDVSAAVEWLERALQENPKNVRATIQLGDVALGKGDTEGAIKRWRSIEQQNPAFLPLVAERLMKAYAQLGRAAEGLAWLRSKMDARLGPELLDVVYRYELDVHGIDDAVALMREQIRRQPSLMALTRLVEAEATRASEAVSHEAAAVAAPISDSALADPVEAGSNADIQRAQDLGAIRDLLQSRTRNLARYTCQECGFRARLFYWQCPGCNRWETYAPRRTEALGGSGGASM | failed |
| MIKSIKKNLKPKILISNLILIIGIVIFVTLYGAVFGSANSLVGVCAITAMLMFVDVHLSLKLNEAIITTVLSFVLMGVSSQIASINPFLGFVVNFISIFVVSYLVTNAMETKAYLPFILCYVFIEGTPITWSELPRRLIALFVGGALIALVYYFSHRKKDDSDHMNISEMIKTMNKNTLQFNFSLRMALAVSIAMLLGSILGFQKSMWISITAMSITQPHFDDTKTRVKERFFGTLIGSAIFVLIFVYIVPQQFSSIVLLILSYIYTFIKEYKIKMIFITMSSLGAAMILFQPGVSVPMRIAFIVMGIGIALVVNKVIYGRLKLEESNEELDETIKDIDKVNDEF | failed |
| MIQQRANFDWMLKELADGVPGVHQIVVLSADGLRIARYGGDPDAADRVAAACAGLQSLAGAVATEIPHSDGKMRMVIIEMDGAYFYMMAAGPNAYLAVLSDVTAEAGLMSNRMRDLVVRIGAHLTSPPRRNGQTV | failed |
| MKALIFAAAGLLLLLPTFCQSGMENDTNNLAKPTLPIKTFRGAPPNSFEEFPFSALEGWTGATITVKIKCPEESASHLHVKNATMGYLTSSLSTKLIPAIYLLVFVVGVPANAVTLWMLFFRTRSICTTVFYTNLAIADFLFCVTLPFKIAYHLNGNNWVFGEVLCRATTVIFYGNMYCSILLLACISINRYLAIVHPFTYRGLPKHTYALVTCGLVWATVFLYMLPFFILKQEYYLVQPDITTCHDVHNTCESSSPFQLYYFISLAFFGFLIPFVLIIYCYAAIIRTLNAYDHRWLWYVKASLLILVIFTICFAPSNIILIIHHANYYYNNTDGLYFIYLIALCLGSLNSCLDPFLYFLMSKTRNHSTAYLTK | failed |
| MKAKGNQKTKVNIVTLGCSKNLVDSENLLTQLRGNGIEAEHESKNDNSNVVVINTCGFIDNAKQESIDTILRYIDAKENGLIDKIYVSGCLSQRYKDDMEREMPQVDAFFGSNELPAILKKFRADYKHELVGERLLTTPSHYAYVKIAEGCDRPCSFCAIPVMRGKHVSTPMEDLVKQAKGMAAKGTKELILIAQDLTYYGLDIYKKRNLSDLLKNLSDVEGIDWIRLQYAYPSGFPLDVLDVMAERSNICKYIDMPLQHGSSDMLKLMRRGIDRPKTEDLIKTIRDKVPGIAFRTTMIIGHPGETEKDFDELCSFVEEQRFDRLGAFTYSHEEHTHSYSMEDTIPQEEKEERQATIMSIQEGISAELNEKKIGNTYKVLFDRKEGGYFIGRTEHDSPEVDNEVMVSAKDQYVRIGDFANVKINDAAEFDLFGEIVK | failed |
| YKGQYFTPPHIAQAMAAMTLMDCHSIIEKRGFMKLQEPTCGSGVMIIGSYNHLRQEHFNPQQQLWVRAQDLDFTTAMMCYIQMTLLHIPGEVIIGNTLT | failed |
| MDDSKSSYKLGLFVVSALVSLFVVLFILGGRSLFEPKIIVETYFDESVSGLEVGAPVRFRGITAGEVVSIELSDALYEAAVPRENRKSYVVVRSEITGAKRTIEEWNRSIEISIERGLRATTQLAGITGQQYLSFDYTSMDEGLSFNWKPNYPYVPSTKSSAGKIVSGIQSLIARLDEADINTLVANINMLIETLNQSISALDADALNAQLLALLINSNQMVKSVDGVISDPEVKEIVSSLAQISKSLNSSLKDKGDINKLIKHLDRAAVRLDVIMADNQSDINYVIKDLRVTVENLKSFSETLKNQPSSIIFSSEPEKLKIN | failed |
| MFSLKMRASSNGNHVSGAERLVKEEQIEEISSELIKRAMNHENGVPDFINLKVEKVTENINYIEHLKIKTINSNSKETSREFAINILKKELENYFLKNGKDTKKIDELIDSAFKIIDAGNMRGAAILDLDGNRLEKSSDRGIRVRNIDTAEELSKKILKDGSLTERTVDAIAIATKVVNCDIIAELCTSDNFSYTTGYVATKDGYFRILNLKDSGQVGGRVFFAESSDIDELYDKLENMPVIVY | failed |
| MLNKVLTHLDENIEKSLERLFSLLRFQSISTDFAYKDECRKAADWLVEDLKSIGFKASRRDTSGHPMVVGHHPGPSDDCLHVLFYGHYDVQPVDPLNLWEDDPFTPSLKEREGEKVICARGASDDKGQLMTFIEACRAFKKETGQLPVRVTVLFEGEEESGSSSLVPFLKANKDELKADCALVCDTSMWDADTPSVSVALRGILGEEIIITAANRDLHSGYFGGAAANPIRILTKVLAGLHDENNRVTLPGFYDGVEETPPHILQSWNALNCTAENFLGPIGLSLPAGEKGRSVLELVWARPTAEINGISGGYEGEGIKTVIASQASAKVSFRLVHKQDPEKIRQAFRDYVCSLIPADCSVVFKEHGASPAIQLPYDSPFIKATKDALSQEWNNPALLTVMGGSIPIVADFQSILDMETLLVGFALADDRIHSPNEKYNLKSFHKGQRSWARILATLAKTGG | not failed |
| MRIEPRPLPETLPDLGDLPPLLARLYAARGVRCAEELDKGLARLIPYQRLKGIEEGVALLVDALEGGQRILIVGDFDADGATASSVGVLALRMLGAAWVDYLVPNRFEYGYGLTPEIVGVALEKRPDLLVTVDNGISSVDGVQAAKAAGLKVLVTDHHLPGPELPAADAIINPNQPGCEFPSKA | failed |
| MGRVYYGGVERTYLYRGRILNLALEGRYEIVEHKPAVAVIALREGRMLFVRQMRPAVGLAPLEIPAGLIEPGEDPLEAARRELAEETGLSGDLTYLFSYFVSPGFTDEKTHVFLAENLKEVEAHPDEDEAIEVVWMRPEEALERHQRGEVEFSATGLVGVLYYHAFLRGR | not failed |
| SCNETGMLERLPLCGKAFADMMGKVDVWKWCNLSEFIVYYESFTNCTEMEANVVGCYWPNPLAQGFITGIHRQFFSNCTVDRVHLEDPPDEVLIPLIVIPVVLTVAMAGLVVWRSKRTDTLL | not failed |
| MSKKIFAALIVAVVATFAGYNIYQSQRAEMEMSDLAMANIEALANDGESSTETTWSCKGTVGTCGAKCGLCGTTIPKSKGTLTGSHKCSM | failed |
| MIVAFENNVVCSDEKVRDYLLAHHADLKEDQDEDALCLVRLHKEEDIDGTDRVDLAGWREISRELYWTGEQMECNYSIIRFSRKTTSLQMSVVLSTCNQLEWLEKVLWGYEAQDTKNFELIIADDGSRKETYDMLQRITPQLSFQVKHVWHEDKGFRKCDILNKGILAAQADYLLFSDGDCIPRKDFVSTHLCLRRKGRFLSGGYHKLSMDLSKDITKDDILSGRCFDLQWMRGKGMPASFKNNKLTATGFKRWALNTFTPTKASWNGHNASGWLSDILAVNGFDERMQYGGQDREFGERLENYGIHGMQIRYSTVCLHLDHARGYKTKDSIQKNRNIRKHTRGAKVQWASLGIVKDELRGQSVKVNSYYDRYTREEEKLTSYKEKGGFYRHIYSLPCRWRRAKYHDKVVRAYQQDTDAPALSNHSGVIVSLTTFPPRISQLHLMLKSILWQTCPPEKIIVWLSEQEFPGRLNDLPEELKRLMAKGIAFRFVSENFRSHKKYHYVFREYPDSKVITVDDDLIYPRNTVERLLSLSYQYPDTVCGNVIRKIHMDGNSFSVYRKWTKVFTMPVNSSLQNVAIGCGGIYYPPHWYGEELFDWKIISEHCPSADDLWLKANELKRRVKVTGGGEFYPRPIELPQTQNNSLQKKNNGKTNLNDKQWKSLNELWKLDELYCINGK | failed |
| MRVLETIVALREYRKSLEESVGFVPTMGALHKGHQSLIERSLKENSHTIVSVFVNPTQFGANEDFNAYPRPLEKDLALCEKLGVNAVFVPKIGEMYPYEAEQRLKLYAPKFLSSSLEGAMRKGHFDGVVQIVLKMFHLVNPTRAYFGKKDAQQLLIIEHLVKDLLLDIEIAPCEIVRDDDNLALSSRNVYLNATQRKQALAIPKALEKIQQAIDKGEKACEKLKKLGLEILETLEVDYLECCNHKLEPLTIIEPTNTLILVAARVGKTRLLDNLWV | failed |
| MAQKMTGALVFDERTDRYDIRFDLNSYYGGLHCGECFDVFVRGKWKPTRIEYGDNWYLVGIRAEDLNGLRVRILEHHHHHH | not failed |
| MLSSVFQVLGGLALFLLAMEMMTNGLKNAAGHHLRHMLGHWTRTPLRALFAGFVITGIVQHSGAVTVATIGFVNAGLMTLAQSLGVVFGSNIGTTMTGWLVSLIGFGFKIEAMALPLLAAGVGFKLVSRNPRNQFLGEALAGFALFFLGLSILKTALESSALGFQNGHLINADYGLPAFMLIGLLATVLTQSSSAALAIVLTAAAGGLIPLDNAAAAVIGANLGSTSTAALSALKATANARRLATGHILFNLVTGVIALLVLPAMLWLVNTLTNLLDLEANPAVSLALFHTLFNVLGAAIMLPFTQPFARFLGRLFRSKEEDNAEPRYLDDTLVTTPELAIGAVDQEMKRLIGHSRGLLRVCLDRESLEESDVRPKADAVRNLNLAITDYIGRLRAEKMHPSVVDALTLSIRTCRYLAEATELTLHLVRLRALARRTDFETLESVFNRYFEVIRALVASETPVPEQLQEAETVYHQLKAATLQKMIRREFSSSLGAQVLDELSAVRRLTDQWSKALYWQDGVGLLNQSHDQASAS | failed |
